Assay results from PMC2680030.

Target: ULBP1 (UniProt Q9BZM6)
Sequence of UniProt Q9BZM6 (Q9BZM6 26-216): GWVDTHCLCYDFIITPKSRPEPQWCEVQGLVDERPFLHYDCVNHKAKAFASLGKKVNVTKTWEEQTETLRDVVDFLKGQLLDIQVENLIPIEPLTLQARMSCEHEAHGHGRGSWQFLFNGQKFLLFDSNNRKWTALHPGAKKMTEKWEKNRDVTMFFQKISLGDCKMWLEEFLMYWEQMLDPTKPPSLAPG

Sequence of NKG2D (P26718 whole entry): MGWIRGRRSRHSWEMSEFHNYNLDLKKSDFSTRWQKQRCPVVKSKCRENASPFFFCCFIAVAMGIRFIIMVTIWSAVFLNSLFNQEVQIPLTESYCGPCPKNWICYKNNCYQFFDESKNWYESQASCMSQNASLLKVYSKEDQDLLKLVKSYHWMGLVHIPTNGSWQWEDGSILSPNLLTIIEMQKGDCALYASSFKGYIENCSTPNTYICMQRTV

How did the specific killing via NKG2D: killing of C1R/ULBP1 (37%) minus killing of C1R/Mock (20%) by primary bulk NK culture NK-A.K., effector-to-target ratio 5:1, PI co-staining of CFSE-labelled target cells turn out when “NKG2D (from UniProt P26718 1-216) (receptor)” was run?
Its specific killing via NKG2D: killing of C1R/ULBP1 (37%) minus killing of C1R/Mock (20%) by primary bulk NK culture NK-A.K., effector-to-target ratio 5:1, PI co-staining of CFSE-labelled target cells is 17%.
